Assay results from patent publication US11484611B2, “Method for sterilizing biological materials” (FM&G Biomed Co., Ltd., priority 2006, dated 2022).

Key:
Type in all cases: physicochemical
[1] = Fluorescence intensity of riboflavin solutions under ultraviolet irradiation; conditions: aqueous solution; compared with untreated riboflavin solutions; higher intensity = degradation
Description: Dehydrated riboflavin was untreated, sterilized by autoclave, or sterilized with ozone. Samples were then dissolved in water to prepare six riboflavin solutions, i.e., solution 1 (100 mg/mL, autoclaved), solution 2 (100 mg/mL, ozone-sterilized), solution 3 (100 mg/mL, untreated), solution 4 (50 mg/mL, autoclaved), solution 5 (50 mg/mL, ozone-sterilized), and solution 6 (50 mg/mL, untreated). Fluorescence intensities of the six solutions were observed under ultraviolet irradiation.

[2] = Molecular property of sterilized collagen by acrylamide gel electrophoresis
Description: Molecular Property of Sterilized Collagen: equivalent amounts of dehydrated collagen were subjected to the following respective treatments: (1) non-treatment; (2) treatment with ozone gas, as described in Example 1; (3) treatment with ultraviolet irradiation for 12 hours; (4) immersion in 75 vol. % ethanol for 4 hours; (5) immersion in 2 vol. % formaldehyde for 1 hour; or (6) autoclave sterilization under high-temperature and high-pressure. Afterwards, each of the samples from the aforementioned treatments was dissolved in acetate solution, analyzed by 5% acrylamide gel electrophoresis, and stained with Coomassie blue.

[3] = Acrylamide gel electrophoresis of sterilized pepsin and bromelain; conditions: 5% acrylamide gel, Coomassie blue
Description: Samples of two dehydrated enzymes, i.e., pepsin and bromelain, were untreated, sterilized by autoclave, or sterilized with ozone. Subsequently, the samples were dissolved acetate solutions, analyzed by 5% acrylamide gel electrophoresis, and stained with Coomassie blue.

[4] = Capillary electrochromatography of sterilized hyaluronan; conditions: absorbance at 194 nm, corresponds to amount of hyaluronan
Description: Two equivalent amounts of hyaluronan (average molecular weight: 58 kDa), were respectively subjected to ozone sterilization and autoclave sterilization. Subsequently, the sterilized samples were analyzed by capillary electrochromatography using a fused silica capillary and a 50 mM phosphate buffer (pH 2.99). Separations were carried out at 25 kV and a column temperature of 25° C. Absorbance was detected at 194 nm. Shown in Table 3 below are the areas under the peak for each of the two samples, which correspond to the amount of hyaluronan contained therein. An untreated sample was included as the control.

Cc1cc2nc3c(=O)[nH]c(=O)nc-3n(C[C@H](O)[C@H](O)[C@H](O)CO)c2cc1C [solution 4, riboflavin]
fluorescence intensity under ultraviolet irradiation [1]: higher than those of the untreated control solutions

collagen
bands of α1, α2 and β chains in electrophoresis gel ([2]; autoclave sterilization, high-temperature and high-pressure, lane (6)): mostly degraded
bands of α1, α2 and β chains in electrophoresis gel ([2]; immersion in 2 vol. % formaldehyde for 1 hour, lane (5)): showed no bands
bands of α1, α2 and β chains in electrophoresis gel ([2]; immersion in 75 vol. % ethanol for 4 hours, lane (4)): only showed indistinct bands
bands of α1, α2 and β chains in electrophoresis gel ([2]; treated by ozone gas, lane (2), 5% acrylamide gel, Coomassie blue): substantially the same as the control
bands of α1, α2 and β chains in electrophoresis gel ([2]; ultraviolet irradiation for 12 hours, lane (3)): partially polymerized and cleaved

Cc1cc2nc3c(=O)[nH]c(=O)nc-3n(C[C@H](O)[C@H](O)[C@H](O)CO)c2cc1C [solution 1, riboflavin]
fluorescence intensity under ultraviolet irradiation [1]: higher than those of the untreated control solutions

pepsin
band in electrophoresis gel ([3]; autoclaved): a band with substantially reduced stain density
band in electrophoresis gel ([3]; ozone-treated): a single band that was the same as that shown by untreated pepsin

hyaluronan
Area under the Peak ([4]; Autoclaved): 633930
Area under the Peak ([4]; Ozone-treated): 814725

bromelain
band in electrophoresis gel ([3]; autoclaved): only showed an indistinct band
band in electrophoresis gel ([3]; ozone-treated): the same band as the control
